The values below come from patent US20130131322A1 (MEDICAL AND BIOLOGICAL LABORATORIES, published 2013).

The target in assay [1] is commercially-available secreted TGF-α biosynthesized by Escherichia coli (R&D systems Inc.) (human, UniProt P01135 40-89). Kind of assay: cell-based or functional assay.
The next assay concerns the target T1, proTGF-α-hFc (human, UniProt P01135 24-89).
T1 construct: not shown: Fc portion of human immunoglobulin G1, fused on the C-terminal side
Kind of assay: solid phase ELISA, proTGFα-hFc on plate.

Assay [2] concerns the target T2, G79A-substituted human TGF-α expressed on 293T cells (human, UniProt P01135 24-160).
T2 construct: Made from pDIG-TGF-α (positions 1 to 160); also called G79A substitution analog; G79A-substituted TGF-α
Briefly: flow cytometry on 293T cells. How it is done:
(§1) After washed with a wash buffer twice, the cells were allowed to react with a 200-fold diluted PE-labeled anti-mouse IgG antibody (MBL CO., LTD.) at 4° C. for 60 minutes.
Background: A flow cytometer gives signals particle by particle.

Assay [3] addresses T3, H74A-substituted human TGF-α expressed on 293T cells (human, UniProt P01135 24-160).
T3 construct: Made from pDIG-TGF-α (positions 1 to 160); also called H74A substitution analog
Kind of assay: flow cytometry on 293T cells. The method, then:
as §1

For a further assay, the target named is T4, TGF-α-hFc (human, UniProt P01135 40-89).
T4 construct: not shown: Fc portion of human immunoglobulin G1, fused on the C-terminal side
Kind of assay: solid phase ELISA, TGFα-hFc on plate. For orientation: In an ELISA, binding on a coated surface is turned into a signal by an enzyme label.

Assay [4] addresses T5, transmembrane TGF-α (human TGF-α positions 1 to 160) expressed on 293T cells (human, UniProt P01135 24-160).
T5 construct: also called TGF-α/293T; TGFα/293T
T5 sequence: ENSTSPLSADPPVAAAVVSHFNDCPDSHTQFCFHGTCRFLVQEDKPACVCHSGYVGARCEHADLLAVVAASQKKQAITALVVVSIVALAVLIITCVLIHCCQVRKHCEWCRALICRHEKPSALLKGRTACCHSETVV
Kind of assay: flow cytometry, culture supernatant on transmembrane TGF-α/293T.

B1: MBL016-8 (antibody, mouse IgG2a, V domains shown)
VH: VQLQQSGAELVRPGASVKLSCTASGFNIKDDYMYWVKQRPEQGLEWIGRIDPANGNTKYAPKFQDKATITADTSSNTAYLHLSSLTSEDTAVFYCAYRRAYWGQGTLVTVSA
VL: DIQMTQSPSSLSASLGGKVTITCKASQDINKYIAWYQHKPGKGPRLFIHYTSKLQPGIPSRFSGSGSGRDYSFSISNLEPEDIATYYCLQYDNLLYTFGGGTKLEIK
As to B1, the “inhibition of EGFR tyrosine phosphorylation (P-Tyr1173) in A431 cells, antibody at 10 µg/mL” value in assay [1] is at least 70%. The figures for the “OD (solid phase ELISA)” value with proTGF-α-hFc and in the assay with TGF-α-hFc were 1.37 OD and 0.869 OD, respectively. Further, the binding result in assay [2] is given as “no binding (tested: 5 µg/mL)”; in assay [3], “binds”.

B2: humanized chimeric anti-TGF-α antibody of MBL016-8 (antibody, human IgG1, V domains shown)
VH: VQLQQSGAELVRPGASVKLSCTASGFNIKDDYMYWVKQRPEQGLEWIGRIDPANGNTKYAPKFQDKATITADTSSNTAYLHLSSLTSEDTAVFYCAYRRAYWGQGTLVTVSA
VL: DIQMTQSPSSLSASLGGKVTITCKASQDINKYIAWYQHKPGKGPRLFIHYTSKLQPGIPSRFSGSGSGRDYSFSISNLEPEDIATYYCLQYDNLLYTFGGGTKLEIK
notes: tested as 293T culture supernatant; also called recombinant antibody MBL016-8
As to B2, the binding result in assay [4] was “binds”.

B3: MBL009-15 (antibody, mouse IgG1, V domains shown)
VH: VQLQESGPGLVKPSQSLSLTCTVTGYSITSDYAWNWIRQFPGNKLEWMGYISYSGSTSYNPSLKSRISITRDTSKNQFFLQLNSVTTEDTATYYCARGGITRFAYWGQGTLVTVSA
VL: DIQMTQTTSSLSASLGDRLTISCRASQDIRNYLNWYQQKPDGTVKLLIYYTSRLHSGVPSRFSGSGSGTDYSLTISNLEQEDIATYFCQQGNTLPWTFGGGTKLEIK
On to B3, for which the “OD (solid phase ELISA)” value turned out to be 1.51 OD with proTGF-α-hFc and 0.879 OD with TGF-α-hFc. The binding result in assay [2] was “no binding (tested: 5 µg/mL)”; in assay [3] it was “binds”.

B4: humanized chimeric anti-TGF-α antibody of MBL009-15 (antibody, human IgG1, V domains shown)
VH: VQLQESGPGLVKPSQSLSLTCTVTGYSITSDYAWNWIRQFPGNKLEWMGYISYSGSTSYNPSLKSRISITRDTSKNQFFLQLNSVTTEDTATYYCARGGITRFAYWGQGTLVTVSA
VL: DIQMTQTTSSLSASLGDRLTISCRASQDIRNYLNWYQQKPDGTVKLLIYYTSRLHSGVPSRFSGSGSGTDYSLTISNLEQEDIATYFCQQGNTLPWTFGGGTKLEIK
notes: tested as 293T culture supernatant; also called recombinant antibody MBL009-15
As for B4, the binding result in assay [4] is on record as “binds”.

B5: MBL259-3 (antibody, mouse IgG2a, V domains shown)
VH: VQLQQSGAELVRPGASVKLSCTASDFNIKDDYMHWMKQRPEQGLEWIGRIDPANGNTKYAPKFQDKATMTADTSSNTAYLQFSSLTSEDTAVYYCATSWGFPYWGQGTLVTVSA
VL: DIVMTQAAPSVPVTPGESVSISCRSSKSLLHRNGNTYLYWFLQRPGQSPQLLIYRMSNLASGVPDRFSGSGSGTAFTLRISRVEAEDVGVYYCLQHLEYPYTFGSGTKLEIK
On to B5, for which the entries for the “OD (solid phase ELISA)” value with proTGF-α-hFc and with TGF-α-hFc were 1.59 OD and 1.11 OD, respectively. The binding result is “no binding (tested: 5 µg/mL)” in assay [2] and “binds” in assay [3].

B6: humanized chimeric anti-TGF-α antibody of MBL259-3 (antibody, human IgG1, V domains shown)
VH: VQLQQSGAELVRPGASVKLSCTASDFNIKDDYMHWMKQRPEQGLEWIGRIDPANGNTKYAPKFQDKATMTADTSSNTAYLQFSSLTSEDTAVYYCATSWGFPYWGQGTLVTVSA
VL: DIVMTQAAPSVPVTPGESVSISCRSSKSLLHRNGNTYLYWFLQRPGQSPQLLIYRMSNLASGVPDRFSGSGSGTAFTLRISRVEAEDVGVYYCLQHLEYPYTFGSGTKLEIK
notes: tested as 293T culture supernatant; also called recombinant antibody MBL259-3
Regarding B6, in assay [4], the binding result is reported as “binds”.

B7: MBL144-1 (antibody, mouse IgG1, V domains shown)
VH: VQLQESGPGLAKPSQTLSLTCSVTGYSITSDYWNWIRKFPGNKLEYMGYISYSGSTYYNPSLKSRISITRDTSKNQYYLQLNSVTTEDTATYYCARSYDGICFDNWGQGTTLTVSS
VL: DILMTQSPATLSVTPGETVSLSCRASQNTYKNLHWYQQKSHGTPKLLIKYASAPISGIPSRFTGSGSGTDYTLSINSVKPEDEGIYYCLQGYSMPWTFGGGTKLEIK
Consider B7, for which the “inhibition of EGFR tyrosine phosphorylation (P-Tyr1173) in A431 cells, antibody at 10 µg/mL” value in assay [1] is at least 70%. The “OD (solid phase ELISA)” value with proTGF-α-hFc was 1.42 OD; with TGF-α-hFc it was 0.65 OD. Besides, the binding result in assay [2] is “no binding (tested: 5 µg/mL)”; in assay [3], “binds”.

B8: humanized chimeric anti-TGF-α antibody of MBL144-1 (antibody, human IgG1, V domains shown)
VH: VQLQESGPGLAKPSQTLSLTCSVTGYSITSDYWNWIRKFPGNKLEYMGYISYSGSTYYNPSLKSRISITRDTSKNQYYLQLNSVTTEDTATYYCARSYDGICFDNWGQGTTLTVSS
VL: DILMTQSPATLSVTPGETVSLSCRASQNTYKNLHWYQQKSHGTPKLLIKYASAPISGIPSRFTGSGSGTDYTLSINSVKPEDEGIYYCLQGYSMPWTFGGGTKLEIK
notes: tested as 293T culture supernatant; also called recombinant antibody MBL144-1
B8: the binding result in assay [4] was “binds”.

B9: MBL292-1 (antibody, mouse IgG1, V domains shown)
VH: VQLQQSGAELVRPGASVKLSCTASGFNIKDDYMHWMKQRPEQGLEWIGRIDPANGNTKYAPKFQDKATITADTSSNTAYLQLSSLTSEDTAVYYCSRMGLLRGYWGQGTTLTVSS
VL: IQMTQSSSSLSVSLGDRVTITCKASVHINSWLAWYQQKPGNAPRLLISGATNLKTGVPSRFSGSASGKDYTLSITSLQTEDVATYYCQQYWDTPWTFGGGTKLEIK
In the case of B9, in assay [1], the “inhibition of EGFR tyrosine phosphorylation (P-Tyr1173) in A431 cells, antibody at 10 µg/mL” value is at least 70%. Besides, the entries for the “OD (solid phase ELISA)” value in the assay with proTGF-α-hFc and with TGF-α-hFc were 1.45 OD and 1.04 OD, respectively. The binding result in assay [2] is “no binding (tested: 5 µg/mL)”; in assay [3], “binds”.

B10: humanized chimeric anti-TGF-α antibody of MBL292-1 (antibody, human IgG1, V domains shown)
VH: VQLQQSGAELVRPGASVKLSCTASGFNIKDDYMHWMKQRPEQGLEWIGRIDPANGNTKYAPKFQDKATITADTSSNTAYLQLSSLTSEDTAVYYCSRMGLLRGYWGQGTTLTVSS
VL: IQMTQSSSSLSVSLGDRVTITCKASVHINSWLAWYQQKPGNAPRLLISGATNLKTGVPSRFSGSASGKDYTLSITSLQTEDVATYYCQQYWDTPWTFGGGTKLEIK
notes: tested as 293T culture supernatant; also called recombinant antibody MBL292-1
Turning to B10, in assay [4], the binding result is listed as “binds”.

B11: MBL184-6 (antibody, mouse IgG1, V domains shown)
VH: EVQLQQSGAELVRPGASVKLSCTVSGFNIKDDYMHWVKQRPEQGLEWIGRIDPANGHTKYAPKFQDKATITADTSSNTAYLQFSSLTSEDTAVYYCTRMGLRRGYWGQGTTLTVSS
VL: IQMTQSSSSLSVSLGDRVTITCKASEHINSWLAWYQQKPGNAPRLLISGATNLKTGVPSRFSGSASGKDYTLNITSLQTEDVATYYCQQYWGTPWTFGGGTKLEIK
B11: the “inhibition of EGFR tyrosine phosphorylation (P-Tyr1173) in A431 cells, antibody at 10 µg/mL” value in assay [1] is at least 70%. Moreover, the “OD (solid phase ELISA)” value with proTGF-α-hFc was 1.4 OD; with TGF-α-hFc, 0.745 OD. Moreover, the binding result is on record as “no binding (tested: 5 µg/mL)” in assay [2] and “binds” in assay [3].

B12: humanized chimeric anti-TGF-α antibody of MBL184-6 (antibody, human IgG1, V domains shown)
VH: EVQLQQSGAELVRPGASVKLSCTVSGFNIKDDYMHWVKQRPEQGLEWIGRIDPANGHTKYAPKFQDKATITADTSSNTAYLQFSSLTSEDTAVYYCTRMGLRRGYWGQGTTLTVSS
VL: IQMTQSSSSLSVSLGDRVTITCKASEHINSWLAWYQQKPGNAPRLLISGATNLKTGVPSRFSGSASGKDYTLNITSLQTEDVATYYCQQYWGTPWTFGGGTKLEIK
notes: tested as 293T culture supernatant; also called recombinant antibody MBL184-6
In the case of B12, the binding result in assay [4] is reported as “binds”.

B13: MBL352-34 (antibody, mouse IgG1, V domains shown)
VH: VQLQQSGAELVRPGASVKLSCTASGFNIKDDYMHWVKQRPEQGLEWIGRIDPANGHTKYAPKFQDKATITADTSSNTAYLQFSSLTSEDTAVYYCTRMGLRRGYWGQGTTLTVSS
VL: IQMTQSSSSLSVSLGDRVTITCKASEHINSWLAWYQQKPGNAPRLLISGATNLKTGVPSRFSGSASGKDYTLSITSLQTEDVATYYCQQYWGTPWTFGGGTKLEIK
For B13, the “inhibition of EGFR tyrosine phosphorylation (P-Tyr1173) in A431 cells, antibody at 10 µg/mL” value in assay [1] is at least 70%. Further, the results for the “OD (solid phase ELISA)” value with proTGF-α-hFc and in the assay with TGF-α-hFc were 1.35 OD and 0.704 OD, respectively. In addition, the values for the binding result in assay [2] and in assay [3] were “no binding (tested: 5 µg/mL)” and “binds”, respectively.

B14: humanized chimeric anti-TGF-α antibody of MBL352-34 (antibody, human IgG1, V domains shown)
VH: VQLQQSGAELVRPGASVKLSCTASGFNIKDDYMHWVKQRPEQGLEWIGRIDPANGHTKYAPKFQDKATITADTSSNTAYLQFSSLTSEDTAVYYCTRMGLRRGYWGQGTTLTVSS
VL: IQMTQSSSSLSVSLGDRVTITCKASEHINSWLAWYQQKPGNAPRLLISGATNLKTGVPSRFSGSASGKDYTLSITSLQTEDVATYYCQQYWGTPWTFGGGTKLEIK
notes: tested as 293T culture supernatant; also called recombinant antibody MBL352-34
Turning to B14, the binding result in assay [4] is listed as “binds”.

B15: humanized chimeric anti-TGF-α antibody of MBL018-1 (antibody, human IgG1, V domains shown)
VH: EVQLQQSGTVLTRPGASVKMSCKASGYTFTNFWIHWVKQRPGQGLDWIGAIYPGNTNTDYNQKFQGKAKLTAVSSASTAYMELSSLTNEDSAVYYCTRGGAMDYWGQGTSVTVSS
VL: IVMTQTPKLLPVSAGDRVTMTCKASQSVDNSVAWYQQKPGQSPKLLIFYASNHYTGVPDRFTASGSGTDFTFTISSVQVEDLAVYFCQQHFSSPRTFGGGTKLEIR
notes: tested as 293T culture supernatant; also called recombinant antibody MBL018-1
As for B15, the binding result in assay [4] was “binds”.
